The target in this assay is target antigen of trastuzumab on the target cells (UniProt P04626). The assay is described as follows: flow cytometry on cells.

B1: meditope-enabled trastuzumab (antibody, V domains shown)
VH: not shown
VL: DIQMTQSPILLSASVGDRVTITCRASQDVNTAVAWYQQRTNGSPRLLIYSASFLYSGVPSRFSGSRSGTDFTLTISSLQPEDIADYYCQQHYTTPPTFGAGTKVEIK
Regarding B1, the binding result is “binds”.

(Values after article PMC6827484 (Methods in molecular biology (Clifton, N.J.), 2019).)
